Several values for one entry are separate records, joined by “and”; a condition that tells them apart may be missing. Identical values can stand only once. Ends that are not written are not given here. * marks the point of attachment. Palmitoyl = CCCCCCCCCCCCCCCC(=O)*
Columns and labels:
[1] = system: SERCA1a; settings: cross-linking experiments; cited from earlier work
From the text: An analysis of all the published data on biochemical characterization of PLB or SLN highlights heterogeneity in the results.

[2] = target: T1, recombinant SERCA1a (recS1a) (Oryctolagus cuniculus, UniProt P04191); experiment: Kinetics of phosphorylation from [γ32P]ATP, recS1a; assay type: biochemical, rabbit (expressed in S. cerevisiae); settings: for EPmax, from calcium deprived state: Fig. 4C, mean of six (pSLN), four (SLN) replicates, recS1a alone 3.09 ± 0.10; for t1/2 of phosphorylation, from calcium deprived state: EGTA 1 min then 2 µM [γ32P]ATP and calcium, six (pSLN) or four (SLN) replicates from two independent experiments, recS1a alone 6.8, p < 0.0001; for rate of phosphorylation, from calcium deprived state: recS1a, starting from calcium-deprived state, Fig. 4C,D
T1 construct: BAD (biotin acceptor domain) (C, cleaved yes); made in house; host or cells: Saccharomyces cerevisiae
Procedure: (§1) Transient formation of the phosphoenzyme intermediate was measured after incubation with [γ^32P]ATP followed by acid quenching, and filtration. For most experiments, 50 µL of enzyme at 10 µg/mL in a buffer containing 50 mM Tes-Tris pH7.5, 1 mM KCl, 5 mM MgCl2, 20% glycerol (w/w) and 0.5 mg/mL DDM, supplemented or not with SLN, was stored on ice. Concentrations of EGTA and calcium are specified in figure legends in order to reach the appropriate [Ca^2+]free and therefore the desired starting state for the ATPase. For kinetics of phosphorylation, we initiate reaction by addition of 2 µM [γ^32P]ATP (5 mCi/µmole), and calcium at 100 µM when specified. Reaction was quenched by addition of 2 mL of cold quenching medium (500 mM TCA + 30 mM H3P0_4) under vigorous mixing, and immediately stored on ice for 20–30 min to improve precipitation, a period of time critical for retention of the precipitate on the filter in presence of detergent. This was followed by filtration on GS filters (Millipore, Saint Quentin-Fallavier, France) and careful rinsing of the filters with diluted quenching medium (50 mM TCA + 3 mM H3P0_4). The amount of radioactivity bound to the filter was estimated by liquid scintillation counting (Perkin Elmer TriCarb Counter). When starting from a calcium-deprived state (Fig. 4C,D), EGTA was added only one minute before starting phosphorylation to limit irreversible inactivation of the solubilized ATPase, although the presence of glycerol helps in protecting the enzyme from irreversible inactivation. For dephosphorylation kinetics, 1 mM “cold” Mg.ATP was added after a 30 s period of phosphorylation. For Ca^2+-dependency, we adjust the concentration of free calcium according to the Ca.EGTA constant as mentioned above, before triggering phosphorylation. […] Phosphorylations were done at 0 °C especially for inhibition by vanadate to prevent dissociation of vanadate and limit irreversible inactivation in absence of calcium.

[3] = system: SERCA1a; settings: cited from earlier work
From the text: Besides its various roles in protein signalling and addressing, palmitoylation can also regulate oligomerisation processes of membrane proteins. Recent work has shown that other P-type ATPases regulatory subunits like phospholamban (PLB) and phospholemman (PLM) are palmitoylated[16],[17]. Acylation of PLB and PLM is functionally relevant by having an impact on the oligomerisation of the peptides, their association with their dedicated pumps (Ca^2+-ATPase or Na+, K+-ATPase, respectively) and on their lifetime.

[4] = target: T1, recombinant SERCA1a (recS1a); experiment: Vanadate inhibition of phosphoenzyme formation, recS1a; assay type: biochemical, rabbit (expressed in S. cerevisiae); settings: for K1/2 (K0.5) for vanadate inhibition, recS1a + pSLN: DDM-solubilized, preincubation with orthovanadate without calcium, phosphorylation 30 s at 0 °C, three independent experiments, p < 0.0001 vs recS1a alone
Procedure: as §1

[5] = target: T1, recombinant SERCA1a (recS1a); experiment: Mg.ATP binding by tryptophan fluorescence; design: species or system rabbit (expressed in S. cerevisiae)
Procedure: (§2) Intrinsic fluorescence of SERCA1a was measured with a SPEX Fluorolog spectrofluorometer (Horiba/Jobin–Yvon, Longjumeau, France) as described before. Briefly, signals were monitored with excitation and emission wavelength set at 295 and 320 nm, with bandwidths of 2 and 10 nm, respectively. Changes in tryptophan fluorescence were recorded at 20 °C after dilution of protein samples to a final concentration of about 6–7.5 µg/mL into a medium containing 50 mM MOPS-Tris pH 7, 100 mM KCl, 5 mM MgCl2, 20% glycerol (v/v) and 10 mg/mL DDM. In presence of SLN, recS1a and SLN were first mixed together and incubate for 1 h on ice before measurement. In absence of SLN, recS1a is supplemented with 0.07 mg/mL C12E8 to compensate the detergent present with SLN. The Maxchelator program was used for estimating [Ca^2+]free[59] (program available at https://somapp.ucdmc.ucdavis.edu/pharmacology/bers/maxchelator/downloads.htm). The dissociation constant of the Ca.EGTA complex was taken to be 0.4 µM at pH7 and was assumed to be the same in the presence of glycerol.

[6] = target: T1, recombinant SERCA1a (recS1a); experiment: Calcium binding at equilibrium by tryptophan fluorescence; design: species or system rabbit (expressed in S. cerevisiae); settings: average of three independent experiments; for Ca1/2 (tryptophan fluorescence), recS1a + pSLN: at equilibrium, pH 7, 20 °C, DDM, 20% glycerol, p=0.200 vs recS1a alone
Procedure: as §2

T1 sequence (P04191 1-994 isoform P04191-2): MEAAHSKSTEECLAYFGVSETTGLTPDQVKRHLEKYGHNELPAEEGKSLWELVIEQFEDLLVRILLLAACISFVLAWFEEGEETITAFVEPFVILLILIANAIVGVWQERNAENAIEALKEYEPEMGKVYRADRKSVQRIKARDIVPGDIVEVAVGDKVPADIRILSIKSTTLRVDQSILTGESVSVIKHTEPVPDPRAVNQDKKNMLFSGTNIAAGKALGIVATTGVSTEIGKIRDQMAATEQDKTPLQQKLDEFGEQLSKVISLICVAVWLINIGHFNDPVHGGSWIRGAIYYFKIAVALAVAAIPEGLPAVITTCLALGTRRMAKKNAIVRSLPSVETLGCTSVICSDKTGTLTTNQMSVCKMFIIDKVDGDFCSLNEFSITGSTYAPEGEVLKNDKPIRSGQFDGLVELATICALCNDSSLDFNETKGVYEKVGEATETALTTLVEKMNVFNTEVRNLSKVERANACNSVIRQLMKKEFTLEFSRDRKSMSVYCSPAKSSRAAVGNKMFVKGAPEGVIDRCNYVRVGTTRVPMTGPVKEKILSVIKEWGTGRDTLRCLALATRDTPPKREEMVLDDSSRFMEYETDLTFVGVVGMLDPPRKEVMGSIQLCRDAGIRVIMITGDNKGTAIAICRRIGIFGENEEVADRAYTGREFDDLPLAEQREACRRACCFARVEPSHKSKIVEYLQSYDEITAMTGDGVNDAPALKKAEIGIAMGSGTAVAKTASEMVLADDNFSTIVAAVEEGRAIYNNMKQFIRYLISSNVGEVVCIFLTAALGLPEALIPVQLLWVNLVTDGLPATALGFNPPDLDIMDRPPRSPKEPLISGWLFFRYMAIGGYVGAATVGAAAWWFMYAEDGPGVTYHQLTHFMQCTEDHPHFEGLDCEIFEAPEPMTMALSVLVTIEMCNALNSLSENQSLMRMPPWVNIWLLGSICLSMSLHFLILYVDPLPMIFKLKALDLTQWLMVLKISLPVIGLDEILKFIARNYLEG

Row | Substance | cross-linking interaction with SERCA1a [1] | EPmax, from calcium deprived state ([2]; SLN:SERCA1a 10:1) [nmoles EP/mg ATPase] | t1/2 of phosphorylation, from calcium deprived state ([2]; SLN:SERCA1a 10:1 mol:mol) [s] | rate of phosphorylation, from calcium deprived state [2] | effect of phosphorylation of SLN:Thr5 on SERCA1a inhibition [3] | K1/2 (K0.5) for vanadate inhibition, recS1a + pSLN [4] [µM] | K1/2 (K0.5) for vanadate inhibition, recS1a + pSLN ([4]; listed as Palm-SLN) | EPmax (vanadate series) ([4]; recS1a + pSLN, recS1a alone 2.01 ± 0.05) | fluorescence change on 0.3 µM Mg.ATP, recS1a + pSLN ([5]; 0.3 µM Mg.ATP, increase of fluorescence in absence of pSLN) | fluorescence change on 300 µM Mg.ATP, recS1a + pSLN ([5]; 300 µM Mg.ATP, decrease of fluorescence in absence of pSLN) | Mg-ATP1/2 (affinity for Mg.ATP), recS1a + pSLN ([5]; calcium-deprived (2 mM EGTA), pH 7, 20 °C, DDM, 20% glycerol, three independent experiments, p = 0.045) | nH for Mg.ATP, recS1a + pSLN ([5]; three independent experiments) | EPmax, from calcium bound state ([2]; SLN:SERCA1a 10:1, Fig. 4A, average of four replicates from two independent experiments, recS1a alone 3.37 ± 0.35) [nmoles EP/mg ATPase] | t1/2 of phosphorylation, from calcium bound state (Ca2.E1) ([2]; SLN:SERCA1a 10:1 mol:mol, 2 µM [γ32P]ATP, four replicates from two independent experiments, recS1a alone 5.7, p = 0.45) [s] | rate of phosphorylation, from calcium bound state ([2]; recS1a in absence or presence of pSLN, starting from Ca2.E1) | Ca1/2 (tryptophan fluorescence), recS1a + pSLN [6] [µM] | Ca1/2 (tryptophan fluorescence), recS1a + pSLN ([6]; listed as Palm-SLN) | nH for calcium (tryptophan fluorescence), recS1a + pSLN [6]
1 | SLN: chemically synthesized non-palmitoylated rabbit sarcolipin; in cited literature results sarcolipin in general (MERSTRELCLNFTVVLITVILIWLLVRSYQY; UniProt P42532 1-31, looked up) | interaction of SLN with SERCA1a at all the major steps of the catalytic cycle | 3.15 ± 0.05 | 13.7 | significantly lower | loss of inhibition of SERCA1a |  |  |  |  |  |  |  |  |  |  |  |  | 
2 | pSLN: chemically synthesized S-palmitoylated rabbit sarcolipin, 31-residue single-spanning membrane peptide, palmitoylated on Cys9 (MERSTRELC(Palmitoyl)LNFTVVLITVILIWLLVRSYQY; UniProt P42532 1-31, looked up) |  | 3.10 ± 0.09 | 13.5 | significantly lower |  | 0.22 ± 0.01 | 0.22+/-0.01 µM | 2.07 ± 0.21 nmoles/mg of ATPase | no fluorescence intensity variation | increase of signal | 11 µM and 11.0 ± 1 µM | 0.95 ± 0.06 | 3.23 ± 0.37 | 5.1 | the same | 4.5 | 4.48 +/- 0.52 µM | 1.96+/-0.20
